Measured values as given in the supplement of paper PMC10567573.
± gives the standard deviation.

Assay: protein stability index of a GFP-peptide fusion (GPS, HEK-293T) (PSI 1-6); higher = more stable
[1] = treatment: DMSO, c terminus: a fixed tail appended
[2] = treatment: MLN4924 1 uM, 8 h, c terminus: a fixed tail appended
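Further: 24-mer peptide tiles fused after GFP, lentivirally expressed, FACS-sorted into six equal bins by GFP/DsRed ratio, decoded by Illumina sequencing, PSI is the read-weighted mean bin number.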

Sequence | protein stability index [1] | protein stability index [2] | protein stability index (treatment: DMSO, c terminus: native) | protein stability index (treatment: MLN4924 1 uM, 8 h, c terminus: native)
CPWHYLHLSGSHNTLAPTCFKAKL [RSPH3] | 2.35 ± 0.23 | 2.59 ± 0.13 | – | –
SKGMQDFNYLHTNCFEITLELSCD [CPN1] | 2.97 ± 0.48 | 2.72 ± 0.58 | – | –
LKKDKKKEEKEDEISLEDLIERER [ZC3H15] | 5.47 ± 0.41 | 5.51 ± 0.13 | – | –
EAWRLVEEGIVSPSDLDLVMSEGL [CRYL1] | 3.91 ± 0.058 | 3.9 ± 0.16 | – | –
ASWMYQLQHGDQLSICFTCFKAAF [TEX19] | 2.59 ± 0.42 | 2.51 ± 0.53 | – | –
IKHVLQTFGPIPEFSRATAEKVNQ [CRYL1] | 3.39 ± 0.44 | 3.43 ± 0.51 | – | –
RGMDLSWESRTGDQYSYSSLVMGS [LCOR] | 2.65 ± 0.41 | 2.92 ± 0.28 | – | –
IDEHHFVAVALRKPDGSRHQDVPS [AASDHPPT] | 4 ± 0.17 | 4.07 ± 0.19 | – | –
FRPEMKKHSWCLKRKNPPNERTV [N4BP2L1] | – | – | 3.06 ± 0.2 | 3.04 ± 0.68
WTLQRRLTRLRTASGHEPGGSAVC [PLEKHN1] | 3 ± 0.23 | 3.06 ± 0.22 | – | –
LRLADEFGVAVVITNQVVAQVDGA [RAD51] | 2.31 ± 0.52 | 2.1 ± 0.39 | – | –
TMAQHAEVLVKSNNLTDRIVVIPG [CARM1] | 3.08 ± 0.22 | 3.36 ± 0.23 | – | –
EQLRREKIDLENTLEQEQEALVNR [CCDC6] | 5.2 ± 0.27 | 5.42 ± 0.1 | – | –
QYWPSRGTETHGLVQVTLLDTVEL [PTPRD] | 2.13 ± 0.17 | 2.23 ± 0.49 | – | –
QELLKRTIMQAVSQIRLNREHKET [TEKT4] | 2.63 ± 0.17 | 2.79 ± 0.36 | – | –
SKDNMRTRIMIGLTLVFFVQITGQ [SLC2A12] | 2.55 ± 0.6 | 3.4 ± 0.17 | – | –
LLLILVSYVHILSAILQFPSTLGR [OR10K2] | 2.98 ± 0.16 | 3.33 ± 0.35 | – | –
PVPAFQSDGTDEPESKEPVEKEEE [SMG5] | 5.57 ± 0.24 | 5.56 ± 0.24 | – | –
SLRKAIETVYAAYLPKNTHPFLYL [MLH1] | 3.76 ± 0.68 | – | – | –
MAETVADTRRLITKPQNLNDAYGP [SNX3] | 3.95 ± 0.25 | 4.17 ± 0.15 | – | –
GIKVQNGGIVTDTPASNHLPGWED [SLC19A2] | 4.4 ± 0.23 | 4.77 ± 0.28 | – | –
FYDKQLKVLLSGATFLVTFGNSEK [ZFYVE21] | 2.45 ± 0.67 | 2.54 ± 0.54 | – | –
VDTLTFQSQSLRDRARRFEEALRK [MTUS2] | 4.08 ± 0.2 | 4.14 ± 0.22 | – | –

Sequence | protein stability index [1] | protein stability index [2] | protein stability index (treatment: DMSO, c terminus: native) | protein stability index (treatment: MLN4924 1 uM, 8 h, c terminus: native)
PSVRSSKDGKLLAATLLLALLSCC [TNFSF13B] | 2.73 ± 0.66 | 2.81 ± 0.85 | – | –
HIDPDVLYPSLNVTSFDSVVPEKL [ALG2] | 3.83 ± 0.25 | 3.91 ± 0.21 | – | –
FAYLEDLHSEFDEQHGKKVPTVSR [SEC22B] | 3.64 ± 0.24 | 3.73 ± 0.33 | – | –
MAVAQQLRAESDFEQLPDDVAISA [NCF4] | 4.89 ± 0.27 | 4.88 ± 0.19 | – | –
VGKGEILASLQDGAAESPYGHPAG [RAB40B] | 4.66 ± 0.24 | 4.76 ± 0.2 | – | –
DFALHYCLHHVHYLATEYLETHFR [GAN] | 3.08 ± 0.24 | 3.11 ± 0.23 | – | –
EERLKLSPSPSSRVTVSRASSSRS [LMNB1] | 4.94 ± 0.15 | 5.03 ± 0.25 | – | –
ACCGGFLEVADFLIKAGADIELGC [ANKRD17] | – | 3.05 ± 1.1 | – | –
TAEDAELSDFEECEETGELFEEPA [FCHSD1] | 5.58 ± 0.24 | 5.5 ± 0.28 | – | –
CLFSERDAAGAPRDASDPLAGAAL [SMAD6] | 4 ± 0.46 | 4.33 ± 0.2 | – | –
TCRNPACGPQWEMSEWSECTAKCG [ADAMTSL2] | 3.28 ± 0.29 | 3.93 ± 0.53 | – | –
GPMRPEQFSDEVEPATPEEGEPAT [GAGE1] | 5.39 ± 0.2 | 5.266 ± 0.044 | – | –
LAMKIKVGSDDLERIEARLATLEG [PSD2] | 2.79 ± 0.42 | 2.85 ± 0.49 | – | –
QRQAPGPARDYSQYYRTIEELQNK [KRT17] | 4.07 ± 0.15 | 4.12 ± 0.063 | – | –
LDSSLASLVGNLGISGTTTKKGDL [SNAP91] | 4.76 ± 0.24 | 4.73 ± 0.19 | – | –
DSPSRSPSKVEVTEKTTTVLSESS [C2CD2L] | 5.59 ± 0.24 | 5.38 ± 0.19 | – | –
GEKPFECRQRLIFEQTPALTKHEW [ZNF8] | 3.04 ± 0.85 | 2.93 ± 0.18 | – | –
DNSTMGYMMAKKHLEINPDHPIVE [HSP90AB1] | 4.21 ± 0.21 | 4.05 ± 0.28 | – | –
IFRDNQWVGFDDVESFKTKVSYLK [CHIT1] | 2.54 ± 0.34 | 2.81 ± 0.24 | – | –
GLQDTITAELVVIEDAAEPKEPAP [PALM] | 5.06 ± 0.19 | 5.1 ± 0.18 | – | –
YDGYRLRVEFPRSGRGTGRGGGGG [SRSF1] | 3.81 ± 0.26 | 3.99 ± 0.25 | – | –
FCSVIRINSTAPFEEQENYFLLCD [ZNF277] | 2.46 ± 0.7 | 1.83 ± 0.15 | – | –
